According to the RNAGym collection of RNA variant scans (doi:10.1073/pnas.2313332121):

B1: TPR t1 (parent)
chain: GACCAAUCUGCCCUCAGAGCUCGAGAACAUCUUCGGAUGCAGAGGAGGCAGGCUUCGGUGGCGCGAUAGCGCCAACGUCCUCAACCUCCAAUGCAUCCCACCACAUGAUGAUGCCUGAAGAGCCUUGGUUUUUUG

Variants of: B1
Assay: polymerase ribozyme fitness, log enrichment relative to wild type (log ratio); higher = more active; in vitro selection for triplet polymerase activity
In short: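 Libraries of mutants in each subunit of a heterodimeric triplet polymerase ribozyme were generated by PCR and transcribed. In triplicate, each went through one in vitro selection round: annealing with biotinylated primer, partner subunit and triplets; frozen incubation at −7 °C; gel excision of extended constructs; streptavidin-bead capture; RT-PCR. Fitness, taken from Illumina sequencing of input and output libraries, is the logarithm of a genotype's enrichment over wild-type enrichment, averaged across replicates with inverse-variance weights. The logarithm is base 2, and genotypes needed ≥10 input reads and ≥1 read per output to be kept.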

Variant	polymerase ribozyme fitness (log ratio)
GACCAAUCUGCCCUCAGAGCUCGAGAACAUCUUCGGAUGCAGAGGAGGCAGGCUUCGGUGGCACGAUAGCGCCAACGUACUCAACCUCCAAUGCAUCCCACCACAUGAUGAUGCCUGAAGAGCCUUGGUUUUUUG [G63A C79A]	-3.48
GACCAAUCUGCCCUCAGAGCUCGAGAACAUCUUCGGAUGCAGAGGAGGCAGGCUUCGGUGGCACGAUAGCGCCAACGUCCUCAACCUCCAAUGCAUCCCACCACAUGAUGAUGCCUGAAGCGCCUUGGUUUUUUG [G63A A121C]	0.832
GACCAAUCUGCCCUCAGAGCUCGAGAACAUCUUCGGAUGCAGAGGAGGCAGGCUUCGGUGGCACGAUAGCGCCAACGCCCUCACCCUCCAAUGCAGCCCACCACAUGAUGAUGCCGGAAGAGCCUUGGUUUUUUG [G63A U78C A84C U96G U116G]	-4.46
GACCAAUCUGCCCUCAGAGCUCGAGAACAUCUUCGGAUGCAGAGGAGGCAGGCUUCGGUGGCACGAUAGCGCCAACGUCCUCAACCUCCAAUGCAUCCCACCACAUGAUGAUCCCUGAAGAGCCUUGGUUUUUUG [G63A G113C]	-2.53
GACCAAUCUGCCCUCAGAGCUCGAGAACAUCUUCGGAUGCAGAGGAGGCAGGCUUCGGUGGCACGAUAGCGCCAACGCCCUCAACCUCCAAUGCGUCCCACCACAUGAUGAUGCCUGAAGAGCCUUGGUUUUUUG [G63A U78C A95G]	-0.717
GACCAAUCUGCCCUCAGAGCUCGAGAACAUCUUCGGAUGCAGAGGAGGCAGGCUUCGGUGGCACGAUAGCGCCUACGUCCUCAACCUCCAAUGCAUCCCACCACAUGAUGAUGCCUGAAGAGCCUUGGUUUUUUG [G63A A74U]	-3.72
GACCAAUCUGCCCUCAGAGCUCGAGAACAUCUUCGGAUGCAGAGGAGGCAGGCUUCGGUGGCAUGAUAGCGCCAACGUCCUCAACCUCCAAUGCAUCCCACCACAUGAUGAUGCCUGAAGAGCCUUGGUUUUUUG [G63A C64U]	-5.38
GACCAAUCUGCCCUCAGAGCUCGAGAACAUCUUCGGAUGCAGAGGAGGCAGGCUUCGGUGGCACGAUAGCGCCAACGUCCUCAACCUCCAAUGCAUCCCACCACAUGAUGAUGCCUGAUGAGCCUUGGUUUUUUG [G63A A119U]	-1.29
GACCAAUCUGCCCUCAGAGCUCGAGAACAUCUUCGGAUGCAGAGGAGGCAGGCUUCGGUGGCACGAUAGCGCCAACGUACUCAACCUCCAAUGCAUCCCACCACAUGAUGAUGCCUGAAGAGCCUUGCUUUUUUG [G63A C79A G128C]	-4.78
GACCAAUCUGCCCUCAGAGCUCGAGAACAUCUUCGGAUGCAGAGGAGGCAGGCUUCGGUGGCACGAUAGCGCCAACGUCCUCAACCUCCAAUGCAUCCCACUACAUGAUGAUGCCUGAAGAGCCUUGGUUUUGUG [G63A C102U U133G]	-2.77
GACCAAUCUGCCCUCAGAGCUCGAGAACAUCUUCGGAUGCAGAGGAGGCAGGCUUCGGUGGUGCGAUAGCGCCAACGUCCUCAACCUCCAAUGCAUCCCACCACAUGAUGAUGCCUGAAGAGCCUUGGUGUUUUG [C62U U130G]	-1.41
GACCAAUCUGCCCUCAGAGCUCGAGAACAUCUUCGGAUGCAGAGGAGGCAGGCUUCGGUGGCACGAUAGCGCCAACGCCCUCAACCUCCAGUGCAUCCCACCACAUGAUGAUGCCUGAAGGGCCUUGGUUUUUUG [G63A U78C A91G A121G]	0.408
GACCAAUCUGCCCUCAGAGCUCGAGAACAUCUUCGGAUGCAGAGGAGGCAGGCUUCGGUGGCACGAUAGCGCCAACGUCCUCAACCUCCAAUGCAUCCCACCAAAUGAUGAUGCCUGAAGAGCCUUGGUUUAUUU [G63A C104A U132A G135U]	-3.28
GACCAAUCUGCCCUCAGAGCUCGAGAACAUCUUCGGAUGCAGAGGAGGCAGGCUUCGGUGGCACGAUAGCGCCAACGUCCUCAACCUCCAAUGCAUCCCACCACAUGAUGAUCCCUGAAGAGCCUUGGUUUUAUG [G63A G113C U133A]	-4.26
GACCAAUCUGCCCUCAGAGCUCGAGAACAUCUUCGGAUGCAGAGGAGGCAGGCUUCGGUGGCACGAUAGCGCCAACGUCCUCAACCUCCAAUGCAUCCCACCACAUGAUGAUUCCUGAAGAGCCUUCGUUUUUUG [G63A G113U G127C]	-4.93
GACCAAUCUGCCCUCAGAGCUCGAGAACAUCUUCGGAUGCAGAGGAGGCAGGCUUCGGUGGUGCGAUAGCGCCAACGUCCUCAACCUCCAAUGCAUCCCACCACAUGAUGAUGCCCGAAGAGCCUUGGUUUUUUG [C62U U116C]	-1.06
GACCAAUCUGCCCUCAGAGCUCGAGAACAUCUUCGGAUGCAGAGGAGGCAGGCUUCGGUGGUGCGAUAGCGCCAACGUCCUCAACCUCCAAUGCAUCCCACCACAUGAUGAUGCCUGAAGAGCCUUGGUUUUAUG [C62U U133A]	-0.403
GACCAAUCUGCCCUCAGAGCUCGAGAACAUCUUCGGAUGCAGAGGAGGCAGGCUUCGGUGGCACGAUAGCGCCAACGUCCUCAACCUCCAAUGCAUCCCACCACAUGAUGAUGCCUGAAUAGCCUUGGUUUUUUG [G63A G120U]	-0.702
GACCAAUCUGCCCUCAGAGCUCGAGAACAUCUUCGGAUGCAGAGGAGGCAGGCUUCGGUGGCACGAUAGCGGCAACGUCCUCAACCUCCAAUGCAUCCCACCAGAUGAUGAUGCCUGAAAAUCCUUGGUUUUUUG [G63A C72G C104G G120A G122U]	-6.38
GACCAAUCUGCCCUCAGAGCUCGAGAACAUCUUCGGAUGCAGAGGAGGCAGGCUUCGGUGGCACGAUAGCGCCAACGUCCUAAACCUCCAAUGCAUCCCACCACAUGAUGAUGCCUGAAGAGCCUUGGUUUUUUG [G63A C82A]	-2.53
GACCAAUCUGCCCUCAGAGCUCGAGAACAUCUUCGGAUGCAGAGGAGGCAGGCUUCGGUGGCACGAUAGCGCCAACGUCCUCAACCUCCAAUGCAUCCCACCUCAUGAUGAUGCCUGAAGAGCCUUGGUUUUUUG [G63A A103U]	-6.64

Variant	polymerase ribozyme fitness (log ratio)
GACCAAUCUGCCCUCAGAGCUCGAGAACAUCUUCGGAUGCAGAGGAGGCAGGCUUCGGUGGCACGAUAGCGCCAACGUCCUCAACCUCCAAUGCAUCCCACCACAUGAUGAUGCCUGAAGAGGCUUGGUUUUUUG [G63A C123G]	0.797
GACCAAUCUGCCCUCAGAGCUCGAGAACAUCUUCGGAUGCAGAGGAGGCAGGCUUCGGUGGCACGAUAGCGCCAACGUCCUCAACCUCCAAUUCAUCCCACCACAUGAUAAUGCCUGAAGAGCCUUGGUUUUUUG [G63A G93U G110A]	-4.5
GACCAAUCUGCCCUCAGAGCUCGAGAACAUCUUCGGAUGCAGAGGAGGCAGGCUUCGGUGGCACGAUAGCGCCAACGUCCUCAACCUCCAAUGCAUCCCACCACGUGAUGAUGCCUGAAGAGCGUUGGUUUUUUG [G63A A105G C124G]	-2.8
GACCAAUCUGCCCUCAGAGCUCGAGAACAUCUUCGGAUGCAGAGGAGGCAGGCUUCGGUGGCACGAUAGCGCCAACGUCCUCAACCUCAAAUGCAUCCCACCACAUGAUGAUGCGUGAAGAGCCUUGGUUUUUUG [G63A C89A C115G]	-4.92
GACCAAUCUGCCCUCAGAGCUCGAGAACAUCUUCGGAUGCAGAGGAGGCAGGCUUCGGUGGCACGAUAGCGCCAACGUCCUCAACCUCCAAUGCAUCCCACCACAUGAUGAUGCUUGACGAGCCUUGGUUUUUUG [G63A C115U A119C]	-5.84
GACCAAUCUGCCCUCAGAGCUCGAGAACAUCUUCGGAUGCAGAGGAGGCAGGCUUCGGUGGCACGAUAGCGCCAACGUCCUCAACCUCCUAUGCAUCCCACCACAUGAUGAUGCCUGAAGAGCCUUGGUUUUUUG [G63A A90U]	-3.43
GACCAAUCUGCCCUCAGAGCUCGAGAACAUCUUCGGAUGCAGAGGAGGCAGGCUUCGGUGGCACGAUAGCGCCAACGUCCUCAACCUCCAAUGCAUCCCACCACAUGAUGAUGCCUGAAGAGCGUUGGUUUUUUG [G63A C124G]	0.684
GACCAAUCUGCCCUCAGAGCUCGAGAACAUCUUCGGAUGCAGAGGAGGCAGGCUUCGGUGGCACGAUAGCGCCAACGUCCUCAACCUCCAAUGCAUCCCACCACAUGAUGAUGCCUGAAGAGCAUUGGUUUUUUG [G63A C124A]	0.45
GACCAAUCUGCCCUCAGAGCUCGAGAACAUCUUCGGAUGCAGAGGAGGCAGGCUUCGGUGGCACGAUAGCGCCAACGUCCUCAACCUCCAAUGCAUCCCACAACAUGAUGAUGCCUGAAGAGCCUUGGUUUUUUG [G63A C102A]	-3.54
GACCAAUCUGCCCUCAGAGCUCGAGAACAUCUUCGGAUGCAGAGGAGGCAGGCUUCGGUGGCACGAUAGCGCCAACGGCCUCAACCUCCAAUGCAUCCCACCACAUGAUGAUGCCUGAAGAGCCUUGGUUUUUUG [G63A U78G]	-2.6
GACCAAUCUGCCCUCAGAGCUCGAGAACAUCUUCGGAUGCAGAGGAGGCAGGCUUCGGUGGCACGAUAGCGCCAACGCCCUCAACCUCCAAUGCAUCCCACCACAUGAUGAUGCCUGAAGAGCCUUGGUUUUUUG [G63A U78C]	-0.735
GACCAAUCUGCCCUCAGAGCUCGAGAACAUCUUCGGAUGCAGAGGAGGCAGGCUUCGGUGGCACGAUAGCGCCAACGUACUCAACCUCCAAUUCAUCCCACCACAUGAUGAUGCCUGAAGAGCCUUGGUUUUUUG [G63A C79A G93U]	-4.19
GACCAAUCUGCCCUCAGAGCUCGAGAACAUCUUCGGAUGCAGAGGAGGCAGGCUUCGGUGGCACGAUAGCGCCAACGUCCUCAACCUCCAAUGCAUUCCACCACAUGAUGAUGCAUGAAGAGCCUUGGUUUUUUG [G63A C97U C115A]	-0.416
GACCAAUCUGCCCUCAGAGCUCGAGAACAUCUUCGGAUGCAGAGGAGGCAGGCUUCGGUGGCACGAUAGCGCCAACGUCCUCAACCUUCAAUGCAUCCCACCACAUGAUGAUGCCUGAAGAGCCUUGGUUUUUUG [G63A C88U]	-1.46
GACCAAUCUGCCCUCAGAGCUCGAGAACAUCUUCGGAUGCAGAGGAGGCAGGCUUCGGUGGUGCGAUAGCGCCAACGUCCUCAACCUCCAAUGCAUCCCACCACAUGAUGAUGCCUGAAGAGCCUUGGAUUUUUG [C62U U129A]	-1.09
GACCAAUCUGCCCUCAGAGCUCGAGAACAUCUUCGGAUGCAGAGGAGGCAGGCUUCGGUGGCACGAUAGCGCCAACGUCCUCAACCUCCAAUGCAUCCCACCACAUGAUGAUGCCUGAUGAGCCUUGGUUUUUUU [G63A A119U G135U]	-1.7
GACCAAUCUGCCCUCAGAGCUCGAGAACAUCUUCGGAUGCAGAGGAGGCAGGCUUCGGUGGCACGAUAGCGCCAACGUCCUCAACCUCCAAUGCAUCCCACCACAUGAUGAUGCCUGAGGAGCCUUUGUUUUUUG [G63A A119G G127U]	0.478
GACCAAUCUGCCCUCAGAGCUCGAGAACAUCUUCGGAUGCAGAGGAGGCAGGCUUCGGUGGCACGAUAGCGCCAACGUCCUCAACCUCCAAUGCAUCCCACCACAUGAUGAUGCCUGAAGAGUCUUGCUUUUUUG [G63A C123U G128C]	-1.87
GACCAAUCUGCCCUCAGAGCUCGAGAACAUCUUCGGAUGCAGAGGAGGCAGGCUUCGGUGGCACGAUAGCGCCAACGUCCUCCACCUCCAAUGCAUCCCACCACAUGAUGAUGCCUGAAGAGCCUUACUUUUUUG [G63A A83C G127A G128C]	-3.2
GACCAAUCUGCCCUCAGAGCUCGAGAACAUCUUCGGAUGCAGAGGAGGCAGGCUUCGGUGGCACGAUAGCGCCAACGUCCUCAACCUCCAAUGCAUACCACCACAUGAUGAUGCCUGAAGAGCCUUGGUUUUUUG [G63A C97A]	-6.64
GACCAAUCUGCCCUCAGAGCUCGAGAACAUCUUCGGAUGCAGAGGAGGCAGGCUUCGGUGGCACGAUAGCGCCAACGUCCUCAAACUCCAAUGCAUCCCACCACAUGAUGAUGCUUGAAGAGCCUUGGUUUUUUG [G63A C85A C115U]	-4.85
